Experimental data published in article PMC8727025.

Target: Arf1 Arf1-del17, lacks the first 17 amino acids (UniProt P84077)
Assay: GFP-GBF1 beads incubated with purified Arf1-del17-His
Conditions: reference: wild type

Sequence of Arf1 Arf1-del17, lacks the first 17 amino acids (P84077 whole entry, looked up): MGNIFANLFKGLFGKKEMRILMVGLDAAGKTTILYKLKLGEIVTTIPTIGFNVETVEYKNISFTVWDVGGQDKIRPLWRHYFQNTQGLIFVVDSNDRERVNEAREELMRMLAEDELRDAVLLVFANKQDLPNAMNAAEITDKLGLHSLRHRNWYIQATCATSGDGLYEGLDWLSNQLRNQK

other: percent reduction vs wild type (sites Y876) | other: percent reduction vs wild type (sites Y898) | Substance
40% | – | GBF1 (from UniProt Q92538-1) Y876F
– | 60% | GBF1 (from UniProt Q92538-1) Y898F
